From the DeepSol protein solubility set

Assay: soluble on expression in E. coli; label from the status in PepcDB or PDB records

Sequence | soluble on expression in E. coli
AHHHHHHGSIIRGDEPEQKALLRKLYRAGNYFMMGDEAIAYGAIFAGCRFYAGYPITPSSEIAETMARELPKVGGYYLQMEDEIASIAAIIGASWTGLKAMTATSGPGFSLMQENIGYAVMTETPVVIVDVQRSGPSTGQATKGAQGDFFQARWGTHGDHPIIAVSPISVEDAFWETIRAFNIAEQLRTPVIVLFDGILGHTREQIRIPDPDEVEISYRKLPRNEEEAKLPFGDPHGDGVPPMPIFGKGYFTHVTGSTHKENGLRDVYTPEVHDRLVRRLHKKIEKNRHIYEKYNEYFTDDAEILVVSWGVSARPSLGAVKKAREEGIKAGLFVPKTVHPFPGEKMRELGKKVRAILVPEMNLGQLILEVQRFVNDDVILKGVNKIGGVPITVEEILREIRGVA | not soluble
MVPRTSSSNPTLRKTSPTMADIDITRSHSLGLDDGRAAVGRVADKLETELGVDAEWTGDTLQFSGQGADGHIEVEADAVHVAINLSAFLQPMRSRVQAEAEDYLDQSLQSQS | not soluble
QDKITVTSEKPVAAADVPADAVVVGIEKMKYLTPEVTIKAGETVYWVNGEVMPHNVAFKKGIVGEDAFRGEMMTKDQAYAITFNEAGSYDYFCTPHPFMRGKVIVE | soluble
MGSDKIHHHHHHMQRDLGKNVKLFNDIKADDLSVMLSCLGVKNQQYEKRSIIIMAEDNVDHVGVVLRGAVLIVKEDFSGNRSIVDHIGQYEMFGEAFACAGIQKSPVTVVAAEKSEIMWIQFRRIFNTCSMSCVFHAKLIENMMKVLAVKNLQMNQKLEITSKRNLRDKLMAYLLIQAKEAKSFDFIIPLNRSELADYLYVDRSALSRELCKMRDEGLIEFKKNHFCMSPM | not soluble
MGQMFNPPHPGETLREDVLPAFNLTVTEAANQLGVSRVTLSRVLNGTSAISPEMALRIEEWLGVENGGRADLWLGMQTSYDLWKARERVHQQPLSVRSVKHKSTEMALR | not soluble
MQHYLHIRPAPSDNLPLVDLIEHPDPIFDPKEKDLNETLLRSLLGGHYDPGFMATSPPEDRPGGGGGAAGGAEDLAELDQLLRQRPSGAMPSEIKGLEFSEGLAQGKKQRLSKKLRRKLQMWLWSQTFCPVLYAWNDLGSRFWPRYVKVGSCFSKRSCSVPEGMVCKPSKSVHLTVLRWRCQRRGGQRCGWIPIQYPIISECKCSC | soluble
MSLPTEMHHNLGAEKRSAVATTIDSFKERSQKVRALSDPNVRFVPFFGSSEWLRFDGAHPAVLAEKYNRSYRPYLLGQGGAASLNQYFGMQQMLPQLENKQVVYVISPQWFSKNGYDPAAFQQYFNGDQLTSFLKHQSGDQASQYAATRLLQQFPNVAMKDLVQKLASKEELSTADNEMIELLARFNERQASFFGQFSVRGYVNYDKHVAKYLKILPDQFSYQAIEDVVKADAEKNTSNNEMGMENYFYNEQIKKDLKKLKDSQKSFTYLKSPEYNDLQLVLTQFSKSKVNPIFIIPPVNKKWMDYAGLREDMYQQTVQKIRYQLESQGFTNIADFSKDGGEPFFMKDTIHLGWLGWLAFDKAVDPFLSNPTPAPTYHLNERFFSKDWATYDGDVKEFQEGHHHHHH | soluble
MAHHHHHHMATIGMFNEEGENVDLYIPRKCHATTTLIEAHDHAAVQISIANVGPNGVINGTTTTLCIAGYLRSQGESDHAINHITIDRGIMRIKTGKPKRASKSKSKKPAAKGAAAGAAAQKGARPPAQKGARPPAQKGARPPAQKGARPPAQKGARPPAQKGAAPARKNRA | soluble
MADNGNEEDRNGYIINRTRFAADFHNRNEDLSEWEEMRGIEWDLILHSDGGQLYTQLVTRSRLQYEIPCKFLLEAQYGQVKVGENFDVTVSSRNHTFGMRIDQPADNGAIKITAYIDF | not soluble
MKAYAKKRISYMPSSPSQNVINFEEIETQKENILPLKEGRSAAALSKAIHQPLVEINQVKSSFEQRLIDELPALSDPITLYLEYIKWLNNAYPQGGNSKQSGMLTLLERCLSHLKDLERYRNDVRFLKIWFWYIELFTRNSFMESRDIFMYMLRNGIGSELASFYEEFTNLLIQKEKFQYAVKILQLGIKNKARPNKVLEDRLNHLLRELGENNIQLGNEISMDSLESTVLGKTRSEFVNRLELANQNGTSSDVNLTKNNVFVDGEESDVELFETPNRGVYRDGWENFDLKAERNKENNLRISLLEANTNLGELKQHEMLSQKKRPYDEKLPIFRDSIGRSDPVYQMINTKDQKPEKIDCNFKLIYCEDEESKGGRLEFSLEEVLAISRNVYKRVRTNRKHPREANLGQEESANQKEAEAQSKRPKISRKALVSKSLTPSNQGRMFSGEEYINCPMTPKGRSTETSDIISAVKPRQLTPILEMRESNSFSQSKNSEIISDDDKSSSSFISYPPQR | soluble
MGSSHHHHHHSSGLEVLFQGPAMATKKVHIISHSHWDREWYMAYEQHHMRLINLIDDLLEVFQTDPDFHSFHLDGQTIILDDYLKVRPEREPEIRQAIASGKLRIGPFYILQDDFLTSSESNVRNMLIGKEDCDRWGASVPLGYFPDTFGNMGQTPQLMLKAGLQAAAFGRGIRPTGFNNQVDTSEKYSSQFSEISWQGPDNSRILGLLFANWYSNGNEIPTTEAEARLFWDKKLADAERFASTKHLLMMNGCDHQPVQLDVTKAIALANQLYPDYEFVHSCFEDYLADLADDLPENLSTVQGEITSQETDGWYTLANTASARIYLKQANTRVSRQLENITEPLAAMAYEVTSTYPHDQLRYAWKTLMQNHPHDSICGCSVDSVHREMMTRFEKAYEVGHYLAKEAAKQIADAIDTRDFPMDSQPFVLFNTSGHSKTSVAELSLTWKKYHFGQRFPKEVYQEAQEYLARLSQSFQIIDTSGQVRPEAEILGTSIAFDYDLPKRSFREPYFAIKVRLRLPITLPAMSWKTLALKLGNETTPSETVSLYDDSNQCLENGFLKVMIQTDGRLTITDKQSGLIYQDLLRFEDCGDIGNEYISRQPNHDQPFYADQGTIKLNIISNTAQVAELEIQQTFAIPISADKLLQAEMEAVIDITERQARRSQEKAELTLTTLIRMEKNNPRLQFTTRFDNQMTNHRLRVLFPTHLKTDHHLADSIFETVKRPNHPDATFWKNPSNPQHQECFVSLFDGENGVTIGNYGLNEYEILPDTNTIAITLLRSVGEMGDWGYFPTPEAQCLGKHSLSYSFESITKQTQFASYWRAQEGQVPVITTQTNQHEGTLAAEYSYLTGTNDQVALTAFKRRLADNALITRSYNLSNDKTCDFSLSLPNYNAKVTNLLEKDSKQSTPSQLGKAEILTLAWKKQ | soluble
GSAMAPTNDQLTDLQEAHFVVFESEENSESVMDGFVEHPFYTATLNGQKYVVMKTKDDSYWKDLIVEGKRVTTVSKDPKNNSRTLIFPYIPDKAVYNAIVKVVVANIGYEGQYHVRIINQDINTKDDDTSQ | soluble
MEKLIILGAQWGDEGKGKIVDLLSEHFDITVRYQGGSNAGHTVVVNSQKFILHLLPTGILHEHVKGVIAQGMVVDLEVLHKEVKNLEEKGIYVKERLFISDRAHLVMPYHKLLDSLFEKKKGIGTTLRGIGPAYMFKYGRKGIRISDLKDEKRFYTLLEDNLDFVKNICEKVFCEKFDLDINQIYEEQLRYFEEFKENVVDLLRFFNTQKGSVLFEGAQGTLLDVDMGTYPYVTSSNASALGLSNGTGMPPKYFSDAFFLGVAKAYTTRVGEGPFPTELKGEEGEKLRELGGEYGSTTGRPRRCGWLDLVALKYAVQVNGLDGFVITKLDVLDTFDEVKVCVAYELDGEVIDYFPASYSELIRVKPVYKTLKGWKKSTKGAKDVSELPKEALDYVKFIEEYTGVPVVMLSTGPKRDEYIWLKEILRTRSGYS | soluble
MFLKKETFTRGDASVALFELSGLQRIEYLEFIQKRTAKYDTDMDGTTEADKRVAYMQMALEINAWLVSRSLLNGDSSQDADTLYQSVQAKWSYEALDAGAESVLMLSGLSADKKDNASDSGNESEDMTPEKS | not soluble
SMSKHHKLARSLRSGPSDHDLKPNAATRDQLNIIVSYPPTKQLTYEEQDLVWKFRYYLTNQEKALTKFLKCVNWDLPQEAKQALELLGKWKPMDVEDSLELLSSHYTNPTVRRYAVARLRQADDEDLLMYLLQLVQALKYENFDDIKNGLEPTKKDSQSSVSENVSNSGINSAEIDSSQIITSPLPSVSSPPPASKTKEVPDGENLEQDLCTFLISRACKNSTLANYLYWYVIVECEDQDTQQRDPKTHEMYLNVMRRFSQALLKGDKSVRVMRSLLAAQQTFVDRLVHLMKAVQRESGNRKKKNERLQALLGDNEKMNLSDVELIPLPLEPQVKIRGIIPETATLFKSALMPAQLFFKTEDGGKYPVIFKHGDDLRQDQLILQIISLMDKLLRKENLDLKLTPYKVLATSTKHGFMQFIQSVPVAEVLDTEGSIQNFFRKYAPSENGPNGISAEVMDTYVKSCAGYCVITYILGVGDRHLDNLLLTKTGKLFHIDFGYILGRDPKPLPPPMKLNKEMVEGMGGTQSEQYQEFRKQCYTAFLHLRRYSNLILNLFSLMVDANIPDIALEPDKTVKKVQDKFRLDLSDEEAVHYMQSLIDESVHALFAAVVEQIH | soluble
MSLTISDVPTQTLPAEGEIGLIDVGSLQLESGAVIDDVCIAVQRWGKLSPARDNVVVVLHALTGDSHITGPAGPGHPTPGWWDGVAGPGAPIDTTRWCAVATNVLGGCRGSTGPSSLARDGKPWGSRFPLISIRDQVQADVAALAALGITEVAAVVGGSMGGARALEWVVGYPDRVRAGLLLAVGARATADQIGTQTTQIAAIKADPDWQSGDYHETGRAPDAGLRLARRFAHLTYRGEIELDTRFANHNQGNEDPTAGGRYAVQSYLEHQGDKLLSRFDAGSYVILTEALNSHDVGRGRGGVSAALRACPVPVVVGGITSDRLYPLRLQQELADLLPGCAGLRVVESVYGHDGFLVETEAVGELIRQTLGLADREGACREGHHHHHH | not soluble
MGSDKIHHHHHHMVGIGFRKDFAAKFLNTTDLQPDFIEVAPENWIGIGGLWKKRLQQALEKYPLYTHGLSLSIGSPDALDFDLLKGVKKFLAETGAKVYSEHLSYSKCDNAHLYDLLPIPFTHDAVKHIAKRIQTIQDFLERRLAIEIVSYYSPVAAEMSELEFVNAILQESDCDLLLDVNNIYVNGFNHNYDPYAFINQLPLERVAYIHIAGHDQVSETLIIDTHGEAIVDPVYYLYQYTMNQLQRDVPTLLERDFNIPQLSELQGEIDRLKKIKADCLTKELYGIQR | not soluble
MTALAVAPASAACAIAAEAIHCAAMDTASAADEALMLAYGAEGDMDAFDALYARHRAGLYRYILRSARNAAQADDIFQETWSRVIDARARYRPQARFTTWLLQIAHNLLVDAHRRQPAPVAPEQAEAALASVPAAEHEQPEARLSEFQQRRRLQLAIERLPDEQRLAMLLRLEHDLDVEEIAQVTGVSRETVKSRLRYATRRIREELSSESAPRSP | not soluble
MKQTPPLISFITICYNGLDDTCMLIESLRDTISSVSYEIIVVDNASRQDEASLIQERYPFVRTLRSEKNLGFSGGNNLGIQIAQGKYLFLINNDTYLTEDGLPALIERLESDPRIGAVSPKIRFAFPPQSIQFAGYTKLSRYTMRNKALGMGCPDDGTFDTPRPSAYLHGAALMLKREVIWKAGLMPEIYFLYYEELDWCTSMTRAGYQLWYEPRCTIFHKESQSTGRQSPLRTFYMMRNRMLYAWRNLPGMERCLAIAYQMLIVAPKDSLCFVLKGEPKLAKAVWHGVKGFWKLCLEHHHHHH | soluble
MGSDKIHHHHHHMQGVPEHFTDERDYAQFRHLPTLPGIELYHAHICRYAFEPHTHEAFGIGTIDDGAEQFRYRGAKHIAPVDSLVLMNPDELHTGESATEDGWRYRMIYIPPDVLESVSGEKGWWFTDVVRHDPATARQLAMTLAALWQTTDPLASESLLLSLIALFRPHAHIAQRQVVEPFHRFDVVKAYLRENFAHTITLKELAALVSLSPYHFLRQFKTQFHVTPHQMLMAIRLYEAKQMLTRGMAAAHVALAVGLTDQAHLTRTFAQRYGVTPIRYQKQVYPTLR | not soluble
